Measurements taken from patent US11278600B2, “Human alpha-galactosidase variants” (Codexis, Inc., priority 2014, dated 2022).
Changes are numbered by the printed parent chain.

B1: 3 (protein)
chain: LDNGLARTPTMGWLHWERFMCNLDCQEEPDSCISEKLFMEMADLMVSDGWKDAGYEYLCIDDCWMAPQRDSEGRLQADPQRFPHGIRQLANYVHSKGLKLGIYADVGNKTCAGFPGSFGYYDIDAQTFADWGVDLLKFDGCYCDSLENLADGYKHMSLALNRTGRSIVYSCEWPLYMWPFQKPNYTEIRQYCNHWRNFADIDDSWKSIKSILDWTSFNQERIVDVAGPGGWNDPDMLVIGNFGLSWNQQVTQMALWAIMAAPLFMSNDLRHISPQAKALLQDKDVIAINQDPLGKQGYQLRQGDNFEVWERPLSGLAWAVAMINRQEIGGPRSYTIAVASLGKGVACNPACFITQLLPVKRKLGFYEWTSRLRSHINPTGTVLLQLENTMQMSLKDLL
modifications: Synthetic Polypeptide sequence of Variant No. 3 of mature Human GLA
B2: 11 (protein)
chain: B1 chain with D48E, I208V, N247D, Q299R, R373K, I376V
modifications: Synthetic Polypeptide sequence of Variant No. 11 of mature Human GLA
B3: 14 (protein)
chain: B1 chain with D48E, R373K, I376V
modifications: Synthetic Polypeptide sequence of Variant No. 14 of mature Human GLA
B4: 4 (protein)
chain: B1 chain with I208V, N247D, Q299R, Q302K, R373K, I376V
modifications: Synthetic Polypeptide sequence of Variant No. 4 of mature Human GLA
B5: 6 (protein)
chain: B1 chain with I208V, R373K, I376V
modifications: Synthetic Polypeptide sequence of Variant No. 6 of mature Human GLA
B6: 9 (protein)
chain: B1 chain with Q302K, R373K, I376V
modifications: Synthetic Polypeptide sequence of Variant No. 9 of mature Human GLA
B7: 15 (protein)
chain: B1 chain with D43E, I208V, Q299R, Q302K, R373K
modifications: Synthetic Polypeptide sequence of Variant No. 15 of mature Human GLA
B8: 13 (protein)
chain: B1 chain with D48E, N247D, R373K, I376V
modifications: Synthetic Polypeptide sequence of Variant No. 13 of mature Human GLA
B9: 7 (protein)
chain: B1 chain with N247D, Q299R, Q302K, R373K, I376V
modifications: Synthetic Polypeptide sequence of Variant No. 7 of mature Human GLA
B10: 5 (protein)
chain: B1 chain with I208V, R373K
modifications: Synthetic Polypeptide sequence of Variant No. 5 of mature Human GLA
B11: 10 (protein)
chain: B1 chain with D48E, I208V, N247D
modifications: Synthetic Polypeptide sequence of Variant No. 10 of mature Human GLA
B12: 12 (protein)
chain: B1 chain with D48E, I208V, Q299R, R373K, I376V
modifications: Synthetic Polypeptide sequence of Variant No. 12 of mature Human GLA
B13: 8 (protein)
chain: B1 chain with N247D, Q302K, R373K
modifications: Synthetic Polypeptide sequence of Variant No. 8 of mature Human GLA

Assay: HTP-analysis of supernatants pretreated with acid (MUGal hydrolysis)
Assay type: biochemical
Conditions: challenge at pH 4.3; activity of the variant/activity of WT GLA (SEQ ID NO: 5); yeast supernatant
Procedure: (§1) Yeast (INVSc1) cells transformed with vectors expressing GLA and GLA variants using the lithium acetate method were selected on SD-Ura agar plates. After 72 h incubation at 30° C. colonies were placed into the wells of Axygen® 1.1 ml 96-well deep well plates filled with 200 μl/well SD-Ura broth (2 g/L SD-Ura, 6.8 g/L yeast nitrogen base without amino acids [Sigma Aldrich]), 3.06 g/L sodium dihydrogen phosphate, 0.804 g/L disodium hydrogen phosphate, pH 6.0 supplemented with 6% glucose. The cells were allowed to grow for 20-24 hours in a Kuhner shaker (250 rpm, 30° C., and 85% relative humidity). Overnight culture samples (20 μL) were transferred into Corning Costar® 96-well deep plates filled with 380 µL of SD-ura broth supplemented with 2% glucose. The plates were incubated for 66-84 h in a Kuhner shaker (250 rpm, 30° C., and 85% relative humidity). The cells were then pelleted (4000 rpm×20 min), and the supernatants isolated and stored at 4° C. prior to analysis.
GLA variants were challenged with acidic buffer to simulate the extreme pHs that the variants may encounter in lysosomes. First, 50 μL of yeast culture supernatant and 50 uL of McIlvaine buffer (pH 3.3-4.3) were added to the wells of a 96-well round bottom plate. The plates were sealed with a PlateLoc Thermal Microplate Sealer (Agilent) and incubated at 37° C. for 1-3 h. For the assay, 10-50 uL of acid-pH-challenged sample was mixed with 0-40 μL, of McIlvaine buffer pH 4.8, 25 μL, of 1 M citrate buffer pH 4.3 and 25 μL, of 4 mM MUGal in McIlvaine buffer pH 4.8. The reactions were mixed briefly and incubated at 37° C. for 30-180 minutes, prior to quenching with 100 μL, of 1 M sodium carbonate. Hydrolysis was analyzed using a SpectraMax® M2 microplate reader monitoring fluorescence (Ex. 355 nm, Em. 448 nm).

Molecule	Relative Activity of GLA Variants After Challenge at pH 4.3
B1	+ (+ = 0.5 to 1.5 relative activity over WT GLA (SEQ ID NO: 5))
B2	+++ (+++ = >2.5 relative activity over WT GLA (SEQ ID NO: 5))
B3	+++ (+++ = >2.5 relative activity over WT GLA (SEQ ID NO: 5))
B4	+++ (+++ = >2.5 relative activity over WT GLA (SEQ ID NO: 5))
B5	+++ (+++ = >2.5 relative activity over WT GLA (SEQ ID NO: 5))
B6	+++ (+++ = >2.5 relative activity over WT GLA (SEQ ID NO: 5))
B7	+ (+ = 0.5 to 1.5 relative activity over WT GLA (SEQ ID NO: 5))
B8	+++ (+++ = >2.5 relative activity over WT GLA (SEQ ID NO: 5))
B9	++ (++ = >1.5 to 2.5 relative activity over WT GLA (SEQ ID NO: 5))
B10	++ (++ = >1.5 to 2.5 relative activity over WT GLA (SEQ ID NO: 5))
B11	+++ (+++ = >2.5 relative activity over WT GLA (SEQ ID NO: 5))
B12	++ (++ = >1.5 to 2.5 relative activity over WT GLA (SEQ ID NO: 5))
B13	+++ (+++ = >2.5 relative activity over WT GLA (SEQ ID NO: 5))

Assay: HTP-analysis of supernatants pretreated with base (MUGal hydrolysis)
Assay type: biochemical
Conditions: challenge at pH 7.0; activity of the variant/activity of WT GLA (SEQ ID NO: 5); yeast supernatant
Procedure: as §1
GLA variants were challenged with basic (neutral) buffer to simulate the pHs that the variants encounter in the blood following their administration to a patient. First, 50 μL of yeast culture supernatant and 50 uL of McIlvaine buffer (pH 7.0-8.2) or 200 mM sodium bicarbonate (pH 9.1-9.7) were added to the wells of a 96-well round bottom plate. The plates were sealed and incubated at 37° C. for 1-18 h. For the assay, 10-50 μL of basic-pH-challenged sample was mixed with 0-40 μL, of McIlvaine buffer pH 4.8, 25 μL, of 1 M citrate buffer pH 4.3 and 25 μL, of 4 mM MUGal in McIlvaine buffer pH 4.8. The reactions were mixed briefly and incubated at 37° C. for 30-180 minutes, prior to quenching with 100 μL, of 1 M sodium carbonate. Hydrolysis was analyzed using a SpectraMax® M2 microplate reader monitoring fluorescence (Ex. 355 nm, Em. 448 nm).

Molecule	Relative Activity of GLA Variants After Challenge at pH 7.0
B1	+ (+ = 0.5 to 1.5 relative activity over WT GLA (SEQ ID NO: 5))
B2	++ (++ = >1.5 to 2.5 relative activity over WT GLA (SEQ ID NO: 5))
B3	++ (++ = >1.5 to 2.5 relative activity over WT GLA (SEQ ID NO: 5))
B4	+ (+ = 0.5 to 1.5 relative activity over WT GLA (SEQ ID NO: 5))
B5	+ (+ = 0.5 to 1.5 relative activity over WT GLA (SEQ ID NO: 5))
B6	+ (+ = 0.5 to 1.5 relative activity over WT GLA (SEQ ID NO: 5))
B7	+ (+ = 0.5 to 1.5 relative activity over WT GLA (SEQ ID NO: 5))
B8	++ (++ = >1.5 to 2.5 relative activity over WT GLA (SEQ ID NO: 5))
B9	+ (+ = 0.5 to 1.5 relative activity over WT GLA (SEQ ID NO: 5))
B10	++ (++ = >1.5 to 2.5 relative activity over WT GLA (SEQ ID NO: 5))
B11	++ (++ = >1.5 to 2.5 relative activity over WT GLA (SEQ ID NO: 5))
B12	+ (+ = 0.5 to 1.5 relative activity over WT GLA (SEQ ID NO: 5))
B13	+++ (+++ = >2.5 relative activity over WT GLA (SEQ ID NO: 5))

Assay: HTP-analysis of yeast culture supernatants, no challenge (MUGal hydrolysis)
Assay type: biochemical
Conditions: activity of the variant/activity of WT GLA (SEQ ID NO: 5), yeast supernatant
Procedure: as §1
GLA variant activity was determined by measuring the hydrolysis of 4-methylumbelliferyl α-D-galactopyranoside (MUGal). For this assay, 5-50 μL, of yeast culture supernatant produced as described above, was mixed with 0-45 μL, of McIlvaine Buffer (McIlvaine, J. Biol. Chem., 49:183-186 [1921]), pH 4.8 and 50 μL of 2 mM MUGal in 50 mM citrate, 200 mM KCl, pH 4.6 in a 96-well, black, opaque bottom plate. The reactions were mixed briefly and incubated at 37° C. for 30-180 minutes, prior to quenching with 100 μL, of 1 M sodium carbonate. Hydrolysis was analyzed using a SpectraMax® M2 microplate reader monitoring fluorescence (Ex. 355 nm, Em. 448 nm).

Molecule	Relative Activity of GLA Variants After No Challenge (NC)
B1	+ (+ = 0.5 to 1.5 relative activity over WT GLA (SEQ ID NO: 5))
B2	+ (+ = 0.5 to 1.5 relative activity over WT GLA (SEQ ID NO: 5))
B3	+ (+ = 0.5 to 1.5 relative activity over WT GLA (SEQ ID NO: 5))
B4	+ (+ = 0.5 to 1.5 relative activity over WT GLA (SEQ ID NO: 5))
B5	+ (+ = 0.5 to 1.5 relative activity over WT GLA (SEQ ID NO: 5))
B6	+ (+ = 0.5 to 1.5 relative activity over WT GLA (SEQ ID NO: 5))
B7	+ (+ = 0.5 to 1.5 relative activity over WT GLA (SEQ ID NO: 5))
B8	++ (++ = >1.5 to 2.5 relative activity over WT GLA (SEQ ID NO: 5))
B9	+ (+ = 0.5 to 1.5 relative activity over WT GLA (SEQ ID NO: 5))
B10	++ (++ = >1.5 to 2.5 relative activity over WT GLA (SEQ ID NO: 5))
B11	++ (++ = >1.5 to 2.5 relative activity over WT GLA (SEQ ID NO: 5))
B12	+ (+ = 0.5 to 1.5 relative activity over WT GLA (SEQ ID NO: 5))
B13	++ (++ = >1.5 to 2.5 relative activity over WT GLA (SEQ ID NO: 5))
